This data set is described as follows: soluble on expression in E. coli; label from the status in PepcDB or PDB records.
As to “MQFTLEHAQDVLSGMPDPTFILSEDGIYIDVFGGTDKKAYHDGSNLIGKTLHSVLEKEQADWFIEQINRSLNQDSIVTIEYKMCADSIQGIDANSGPKGDLYYEGKICPLTINYQGRRVVLILTRNISNRHRVETLLRHQSQI”, the “soluble on expression in E. coli” value was “not soluble”. “MQFYNRQKELKLMELLDQGKPSFFVITGKRRVGKTELIKQFTRNRKALYLFVDSNKSINILMDEFDRLLKEKLDLPDYIKVDEPENFLKFITSYDRDLVIAIDEFQRFQKVYPSFITQLQRYWDMKPDNCRIFLIVSGSSIGMIRKIFIEEQAPLFKRADNILTIKPFTVLETFEMLDGMGIKNPEEKLNLYFLFGGTVYYYRLFEKYQCTGFDDALEKLIFSEFAPLKNEVREILIEEFGKEHSTYYEIISAISQGRCSMSEISDMTHVSSSSLSPYFYDLIDLLGVVEHRIPVMDNPEKSKRGRYFLKDNFFRFYGRFIYPMYSRYMAGNYSPMLEKVRKEWQSYTGKIFEDIVHELLVEKMISDYPELGSWWNRKGDEIDILGVDHRGRKSLVIEVKNKELAENEAREILELTLDKTKLVKGISGQKLKVGIVAQKVKGRKNLEDDGFLVWELEELIPLEHHHHHH”: the “soluble on expression in E. coli” value is “not soluble”. Turning to “MQGQKIPATVITGFLGSGKTTMIRNLLENANGKRIALIINEFGDLGVDGGILKRCGIETCREEDVIELNNGCICCTVADDFIPTMTKLLDREDRPDHIVIETSGLALPQPLVAAFNWPEIKTQVTVDGVVTVIDAAAVAEGRFADDHDKVDAQRAADESLDHESPLEELFEDQIHAADLIVLNKADLIDAAKLDSVKADVAERSSRRVNMVPASFGKLGADVLLGLGVGTEDDIVNRRSHHEAHHGDGHEHDHDEFESFVVEAGSVADPKAFAEKLKAVIAEHDILRLKGFVDVPGKPMRLVVQAVGPRIEHYFDRPWGKDETRSTRLVVIGLHDIDEAAIAQAVKDADLEHHHHHH”, the “soluble on expression in E. coli” value is “not soluble”. As for “MQIDVDPQEDPQNAPDVNYVVENPTLDLEQYAASYSGLMRIERLQFIADRCPPLRVEALKMALSFVQRTFNVDMYEEIHRKLSEATRELQNAPDAIPESGVEPPPLDTAWVEATRKKALLKLEKLDTDLKNYKGNSIKESIRRGHDDLGDHYLDCGDLSNALKCYSRARDYCTSAKHVINMCLNVIKVSVYLQNWSHVLSYVSKAESTPEIAEQRGERDSQTQAILTKLKCAAGLAELAARKYKQAAKCFLLASFDHCDFPELLSPSNVAVYGGLCALATFDRQELQRNVISSSSFKLFLELEPQVRDIIFKFYESKYASCLKMLDEMKDNLLLDMYLAPHVRTLYTQIRNRALIQYFSPYVSADMHKMAAAFNTTVAALEDELTQLILEGLINARIDSHSKILYARDVDQRSTTFEKSLLMGKEFQRRAKAMILRAAVLRNQIHVKVKSLGCEGMGGTHTASTEPSLSTAVSS”, the “soluble on expression in E. coli” value is “not soluble”.

For the sequence “MQIKILATSDMHGYIMPTSYSEKKMDLPFGTAKAATMLKKLRASAKGPVFQIENGDFIQGSPLSYYVRKAETHSVAAITKIINQMNYDVSILGNHEFNYGLDYLKETIASYQQPVLAANILGKDGQPYFGQPYVIIEKQGVKVAILGVTTQYIPHWEQPATVKDLTFKSVVETAAEYVPKLREEADLVVVAYHGGFEKDLETGEPTELLTGENEGYDLLEKVPGIDALVTGHQHREIATKLNGIPVIQPGFRGAFVGEITLEIEPMAKGYHVIGSDAAIHPVGNEQPDTEVLALTTALHDEVEEWLDQPVGNVEGDMTIQNPNAVRLKEHPYIEFINNVQMASSGTDISGTALFNNEGKGFNNQITMRDIITNYIYPNTLAVLRVTGQDLREALEQSATYFVLEKGQPIFNPKYVDPKPQYYNYDMYEGIEYTLDLRQPFGERVTKLNYHGKAVQAEDVLEIVTNQYRAVGGGNYQMFQPEKIIREIQIDMTELIAEYLKKHPIIQASTNDNFKVIW”, the “soluble on expression in E. coli” value is on record as “not soluble”. Regarding “MQKIVIVANGAPYGSESLFNSLRLAIALREQESNLDLRLFLMSDAVTAGLRGQKPGEGYNIQQMLEILTAQNVPVKLCKTCTDGRGISTLPLIDGVEIGTLVELAQWTLSADKVLTF”, the “soluble on expression in E. coli” value is given as “soluble”. The value for “MQLASRFGHVNQIRRDRPLTREELMQVVPSVFGEDKHTSRSENYTWIPTITVLESLQREGFQPFFACQTRVRDPGRRGYTKHMLRLRRDGEINGQHVPEIILLNSHDGTSSYQMLPGYFRFVCQNGCVCGQSLGEVRVPHRGNVVEKVIEGAYEVVGVFDRIEEKRDAMQSLVLPPLARQALAQAALTYRYGDEHQPVTTADILTPRRREDYGKDLWSAYQTIQENMLKGGISGRSAKGKRIHTRAIHSIDTDIKLNRALWVMTETLLENMR” was “not soluble”; that for “MQLDPPEPGFYDDPDLSYSIEKSITNWDEKRHEWFKSHPSFKPGSENRILMVTGSQSSPCKNPIGDHLLLLRCFKNKVDYARIHGHDIFYSNSLLHPKMNSYWAKLPVVKAAMLAHPFMD” was “not soluble”; that for “MQLEIKGKTHNVKFGTRFVAEMDKNHIAERQGFKFGAGLQSSVPFLIDHSVVTLAEVIYTGTITEPPRPSLNDIYDYIDEVEDIEKLFDDVLDELRQSNASKLFMAQVEKDLAEAKA” was “not soluble”.

Turning to “MQLIPFEIPGILVGRFEKCSDNKREDERQRISLLLRRVFPHDTPQIGHLPSGKPILDSAHNISISHTGSYGAIYVTPSSLIPGIDIEMLSDRALRVAPRFMNEREYEWLMSADEARRRLLATIIWSAKETAYKIFNPSDASLKRFDVALPFELPSENTLFSFELIYSDSCTGDIHIPVQALCTGEFILTCACHCSHSR”, the “soluble on expression in E. coli” value is given as “not soluble”. For “MQLLTEKDRPEEEKREETWRRLKRDIASSANTIHEIDTGKARGYNRALFVSSIFNKVSTFAGHGDVEIVQKAIDFISEYNAGIKKPVITPRHRFFQLAETASRMRDKLKETQELENREVTFEGGILVWNYQESRLQVFFNKIPEESKRRELKSSGFHWSPRNRAWQRQLNPNAVSAAKRILNL”, the “soluble on expression in E. coli” value is reported as “not soluble”.

As to “MQLYYLGPKGTFSYLACRQYFSENEATFQPKSNLFEVIKAVADDDTSIGVVPIENSIEGTINIVADALAQQDVFAHGEIRLDINFALYGNGTDSISDIKKVYSIAPAISQTTNYIHQHQFDYDYVDSTIQSLTKIENGVAAIAPLGSGEAYGFTPIDTHIEDYPHNVTRFLVIKNQQQFDQNATSLMFLITPMHDKPGLLASVLNTFALFNINLSWIESRPLKTQLGMYRFFVQADSAITTDIKKVIAILETLDFKVEMIGAFN”, the “soluble on expression in E. coli” value is reported as “soluble”.

Turning to “MQMNSEKFFKLFRVGETVLVEYSGTSRAELLLYYIVNNSKLPIVVDDILDTYYEFYTRLKVAGFDVAPLENVQVIKMGGTKDIGRVIGRLNISKYVISEQEYMEIVSQLKDYPVINPVLGLHKLILLGNTFENINVVKMVSNYVGREERIAFYFVNRNVIEKHSSPILDLLEEVVTSILEITDSGIIIKKSIKDEIAGKIVSPLLNF”, the “soluble on expression in E. coli” value is “soluble”. For “MQMQVLTNTKFETVAFQWPAGFYSDGIHIGLRRHKKDFGWLFSKVPASAAGTYTTNQFQAAPTKLTKQMIDQGHQLQGLLLNSAIANSCTGEQGWQNALQEQAWLANKLNVAPNLIGVASTGLIGAQLPMDKIKNGLPQLTPTKSDAVTYAVLTTDQHPKTVCVQCELSGQLVTLTGFAKGSGMIHPKMATMLGFVTTDAQIDGPVLQDMLSTNVDQTFNQITVDGDTSTNDMVVTLANGLADNPSLQAGTTDYDIFNQALHYVLGQLAKQIAADGEGATKLVECNVVHAATTFDGQQIAKAIVGSNLVKAAIFGEDPNWGRIISTIGATDADIDVATVDIEMNGVLLVQQSLAVDFDMAAVQATLRDNQIMIDVDLHHGTASGQAWGCDLTYNYVKINASYHTLEHHHHHH”, the “soluble on expression in E. coli” value was “not soluble”. Take “MQNDNAKPISISKQLVYDAFLRVKANRGSAGIDKVTLEDYEKNLRGNLYKLWNRMSSGSYFPPSVKLVEIPKSTGGKRPLGIPTVSDRVAQMAVVMLITPSIEPCFHEDSYAYRPHRSAHDAVGKARERCWKYAWVLDMDISKFFDTIDHELLLKALKRHTQEKWVLMYIERWLKVPYEKSDGSQVDRALGVPQGSVIGPVLANLFLHYTFDKWMEKNFPRVPFERYADDTICHCHSLKQAEYMQAMIQQRFECCRLRLNEEKTKIVYCKSSRQKECYPNVTFDFLGFTFQPRESVDKYGNRFTGFLPAISRKSMKRINETMRSWHLNRHSNLTLEHLASDINPIVRGWMTYYGKFYPTRLKWFMQTLNGRLARWVMCKFERYRHRFYPAQEWLARIAEKEGLIFYHWKCGALPRFTNKEKVSSQLIMVK”: the “soluble on expression in E. coli” value was “soluble”.

For “MQNNSYGYAVSVRVGGKEHRHWERYDIDSDFLIPADSFDFVIGRLGPEAAIPDLSGESCEVVIDGQIVMTGIIGSQRHGKSKGSRELSLSGRDLAGFLVDCSAPQLNVKGMTVLDAAKKLAAPWPQIKAVVLKAENNPALGKIDIEPGETVWQALTHIANSVGLHPWLEPDGTLVVGGADYSSPPVATLCWSRTDSRCNIERMDIEWDTDNRFSEVTFLAQSHGRSGDSAKHDLKWVYKDPTMTLHRPKTVVVSDADNLAALQKQAKKQLADWRLEGFTLTITVGGHKTRDGVLWQPGLRVHVIDDEHGIDAVFFLMGRRFMLSRMDGTQTELRLKEDGIWTPDAYPK”, the “soluble on expression in E. coli” value is “not soluble”.

For the sequence “MQNRLRSALALVTGAGSGIGRAVSVRLAGEGATVAACDLDRAAAQETVRLLGGPGSKEGPPRGNHAAFQADVSEARAARCLLEQVQACFSRPPSVVVSCAGITQDEFLLHMSEDDWDKVIAVNLKGTFLVTQAAAQALVSNGCRGSIINISSIVGKVGNVGQTNYAASKAGVIGLTQTAARELGRHGIRCNSVLPGFIATPMTQKVPQKVVDKITEMIPMGHLGDPEDVADVVAFLASEDSGYITGTSVEVTGGLFMAENLYFQ”, the “soluble on expression in E. coli” value is listed as “soluble”. As for “MQPHPETTPVTSCTIIDATDRSIRQTLGETSTLARLIWVDAGLASPPLCSGLARCGRCRVRITEAAPAPHEDDREFFSAEDISAGWRLACRHAPAHGMVVHVPLPVMPHRHASRPKHPGPFRLAVDLGTTSLQWSLLAPDGTVAAQGSETNPQMGAGSDVMSRIAMARSDKGRGRLRELVLQALRRIVADVEGTPATADAVPPAGSGDEPTTACGYESRVEELCVAGNTAMTAILADESVEGLASAPYRLEMRGGTALALPGLPPAWIPPLPAPFVGGDLSAGYLAVLTDHAPAFPFVLADLGTNGEFVLALSPERTLVTSVALGPALEGIGLTFGTVAQRGAITSFTLTPGGLVPYVLDGGEADGISGTGYISLVHALLRAGLLDVDGRFIQSPSSPLAARMARSIVSHRGEPCLPLARGLYLAARDIEEILKVKAAFSLAFERLLATAQMPSHALSGIHLAGALGQHALPADLEGLGFIPPGSGGRTRAVGNTSLRGAELLLTSPPLRDTLNTWREGCTVVDLTAAPDFSAAFLRHMHFHFLEHHHHHH”, the “soluble on expression in E. coli” value is listed as “soluble”. Take “MQPLKRIRHPSGSEILFDAKWHQYKLGGTALRSVSKLLDRFFPFDEKRVLELVSKKTGQPVDKIKQGWSRQALLGKNVHEFIECKLLKKPPPTFTLLMKRKQAREAARPADATGPAAITTTPLEDEVLHGEEALYLPVAEMAVEKVLSTYDVLGAEQVIAAPGWGIAGTIDFMGRNRRTNRVLIGDWKTTGSVTSNFRFGSFETACPGALRHLPNSKMYRYAMQVTIYGEILAREQYFEKQFFDAQLRASLTASLAVPSTDVTPPAPPAKTRGRPSSRAAAPAKSDIGSDVESLLKTFYRNNTEQRFEYGIVQLAKGEDGGVVAEFKEVTPETVMPPDCPEMTFDSLLQRVMEGVGV”: the “soluble on expression in E. coli” value is listed as “soluble”. Regarding “MQPNDITFYQRFEADILAGHKTISIRDDSESHFKAGDILRVGRFEDNQYFCNIEVLSVSPITLDELTQPHAKQENMGLDELKEVIRGIYPNEIIFWVIQFSLKEYFNEEKCVREIIITDRKFN”, the “soluble on expression in E. coli” value is recorded as “soluble”.
